Target: T1, Myc-tagged Mst1 (UniProt Q13043 1-487)
T1 sequence (looked up): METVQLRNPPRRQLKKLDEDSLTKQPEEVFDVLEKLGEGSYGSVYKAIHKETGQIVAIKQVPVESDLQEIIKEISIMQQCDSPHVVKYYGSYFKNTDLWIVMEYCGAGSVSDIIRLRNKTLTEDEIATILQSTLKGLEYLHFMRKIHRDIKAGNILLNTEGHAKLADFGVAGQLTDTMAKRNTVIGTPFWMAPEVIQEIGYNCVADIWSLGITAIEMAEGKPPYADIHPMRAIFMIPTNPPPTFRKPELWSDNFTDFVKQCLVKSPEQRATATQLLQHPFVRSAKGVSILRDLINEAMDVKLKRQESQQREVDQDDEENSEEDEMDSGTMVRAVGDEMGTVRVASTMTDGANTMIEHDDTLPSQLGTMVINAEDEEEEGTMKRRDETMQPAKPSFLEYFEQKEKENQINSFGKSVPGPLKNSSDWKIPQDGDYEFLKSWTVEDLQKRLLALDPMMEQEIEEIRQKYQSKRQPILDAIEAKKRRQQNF
Assay: cell-based or functional assay

in vitro kinase assay of Mst1 immunoprecipitated from HEK293T cells transfected with Myc-Mst1 with or without Flag-GAPDH: Mst1 autophosphorylation and MBP phosphorylation, increase with GAPDH: ~2 fold
B1: FLAG-tagged GAPDH (enzyme)
chain: not shown
